Measurements reported in patent US20250197519A1 (Xencor, published 2025).

T1: CD20 on CD20+ Ramos B cells (human, UniProt P11836 1-297)
T1 construct: whole, on cells; also called human CD20
T1 sequence (looked up): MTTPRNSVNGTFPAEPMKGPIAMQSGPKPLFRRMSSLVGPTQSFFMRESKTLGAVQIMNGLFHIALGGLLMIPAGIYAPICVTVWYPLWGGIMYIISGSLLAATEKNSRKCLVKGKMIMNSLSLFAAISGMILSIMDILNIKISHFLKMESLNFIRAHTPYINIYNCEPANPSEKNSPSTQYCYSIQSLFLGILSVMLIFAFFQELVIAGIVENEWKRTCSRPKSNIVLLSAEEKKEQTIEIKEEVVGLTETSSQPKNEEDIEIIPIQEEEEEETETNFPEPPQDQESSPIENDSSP


How the values were obtained:
[1] = molecular target: CD20 on CD20+ Ramos B cells (human) (UniProt P11836); test: flow cytometry on Ramos B cells, PE-conjugated goat anti-human IgG Fc secondary
[2] = molecular target: T1, CD20 on CD20+ Ramos B cells; test: as above
Procedure: Next, binding of the improved CD20 mAb to CD20+ Ramos B cells was investigated. 1.5×10⁵ Ramos B cells were incubated with indicated concentrations of bivalent IgG1 mAb having either [CD20]H0L0 or optimized [CD20]_H1_L1 on ice for 1 hour. PE-conjugated goat anti-human IgG Fc was used as a secondary antibody to detect binding of the CD20 mAbs to the target cells.

EC50 [1] | EC50 [2] | Molecule
0.264 µg/mL |  | bivalent IgG1 mAb having the rituximab Fv [CD20]_H0L0 (antibody)
 | 0.175 µg/mL | bivalent IgG1 mAb having humanized/affinity-optimized [CD20]_H1_L1 Fv (antibody, V domains shown, also called improved CD20 mAb) VH: QVQLVQSGAEVKKPGASVKVSCKASGYTFTSYNMHWVRQAPGQRLEWMGAIYPGNGATSYSQKFQGRVTITADTSASTAYMELSSLRSEDTAVYYCARSYYMGGDWYFDVWGAGTLVTVSS VL: QIVLTQSPSSLSASVGDRVTITCRASWSVSYIHWFQQKPGKSPKPLIYATSNLASGVPVRFSGSGSGTDYTLTISSLQPEDFATYYCQQWTHNPPTFGGGTKVEIK
